Assay [1] has as its target T1, human GPRC5D (human, UniProt Q9NZD1 1-345). The assay is described as follows: cell-based or functional assay.
Assay [2] concerns the target T1, human GPRC5D. As to the kind of experiment: FACS, OPM-2 cells. The source says: (§1) The subcloning plates were screened by Mirrorball assay and the subclones with good binding ability were expanded to 24-wells for confirmation tests. The specificity and cross-reactivity of these subclones were confirmed with FACS analysis. Briefly, parental HEK293T, HEK293T cells stably over-expressing human GPRC5D protein (i.e., HEK293T-hGPRC5D), HEK293T cells stably over-expressing cynomolgus monkey GPRC5D protein (i.e., HEK293T-cynoGPRC5D), HEK293T cells stably over-expressing mouse GPRC5D protein (i.e., HEK293T-mGPRC5D), and OPM2 cells were incubated with antibodies produced by each subclone, respectively. Fluorescent dye-conjugated secondary antibody was used to detect the binding of the primary antibody with the cells. Median fluorescence intensity (MFI) was measured by FACS analysis,
(§2) As a result, 21 antibodies were discovered with unique sequences showing positive binding with HEK293T-hGPRC5D and OPM2 cells. Among which, some clones could also bind with HEK293T-cynoGPRC5D and/or HEK293T-mGPRC5D. […] ATG596 was a positive human IgG1 control antibody which comprises a VH region having an amino acid sequence as set forth in SEQ ID NO: 199, and a VL region having an amino acid sequence as set forth in SEQ ID NO: 200.

Assay [3] deals with T2, mouse GPRC5D (mouse, UniProt Q9JIL6 1-344).
T2 construct: whole, on cells; HEK293T-mGPRC5D cells; also called mGPRC5D; murine GPRC5D
T2 sequence (looked up): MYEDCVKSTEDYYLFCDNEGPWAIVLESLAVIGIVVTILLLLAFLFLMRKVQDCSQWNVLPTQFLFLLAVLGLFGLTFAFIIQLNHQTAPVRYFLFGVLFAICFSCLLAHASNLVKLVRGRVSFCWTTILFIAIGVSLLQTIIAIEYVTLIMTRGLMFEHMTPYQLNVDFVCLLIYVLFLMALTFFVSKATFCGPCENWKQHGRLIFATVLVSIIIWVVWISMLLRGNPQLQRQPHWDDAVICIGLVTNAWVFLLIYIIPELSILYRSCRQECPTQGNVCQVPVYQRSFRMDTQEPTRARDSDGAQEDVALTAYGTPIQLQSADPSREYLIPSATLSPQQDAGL
As to the kind of experiment: FACS, HEK293T-mGPRC5D cells.
Excerpt: as §1, §2

In assay [4] the target is T1, human GPRC5D. As to the kind of experiment: FACS, HEK293T-hGPRC5D cells.
Excerpt: as §1, §2
In general terms: In flow cytometry, cells or beads pass a laser one at a time.

Assay [5] has as its target T3, cynomolgus monkey GPRC5D (cynomolgus monkey).
T3 construct: whole, on cells; HEK293T-cynoGPRC5D cells; also called cynoGPRC5D
The assay is described as follows: FACS, HEK293T-cynoGPRC5D cells.
Excerpt: as §1, §2

T1 sequence (Q9NZD1 whole entry): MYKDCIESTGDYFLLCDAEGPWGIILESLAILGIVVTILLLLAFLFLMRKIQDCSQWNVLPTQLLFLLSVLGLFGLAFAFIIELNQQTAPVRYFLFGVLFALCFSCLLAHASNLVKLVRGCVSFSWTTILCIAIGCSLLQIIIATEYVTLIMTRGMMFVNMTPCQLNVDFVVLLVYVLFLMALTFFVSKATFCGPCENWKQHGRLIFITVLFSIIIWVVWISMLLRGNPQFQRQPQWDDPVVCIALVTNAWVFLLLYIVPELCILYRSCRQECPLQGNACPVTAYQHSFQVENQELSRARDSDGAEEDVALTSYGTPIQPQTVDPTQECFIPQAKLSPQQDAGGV

B1: Bis-83A9B8 (bispecific antibody)
chain 1: EVQLQQSGPELVKPGASVKMSCKASGYTFSNYVIHWVKQKPGQGLEWIGYFNPYNDGSKYNEKFKGKATLTSDKSSSTAYMELSSLTSEDSAVYYCARGGVRRYFDVWGAGTTVTVSS
chain 2: GGGGSGGGGSGGGGSEVQLVESGGGLVQPGRSLRLSCAASGFTFDNYAMHWVRQAPGKGLEWVSGISWNSGSIGYADSVKGRFTISRDNAKNSLYLQMNSLRAEDTALYYCAKDSRGYGDYSRGGAYWGQGTLVTVSSEIVMTQSPATLSVSPGERATLSCRASQSVSSNLAWYQQKPGQAPRLLIYGASTRATGIPARFSGSGSGTEFTLTISSLQSEDFAVYYCQQYNNWPWTFGQGTKVEIK
chain 3: DIQMTQSPSSLSASLGERVSLTCRASQDIGDNLNWLQQEPDGTIKRLIYATFSLDSGVPKRFSGSRSGSVYSLTISRLESEDFVDYFCLHYASFPYTFGGGTKLEIK
As usually defined, the EC50 is the concentration at which the effect is half-maximal. Regarding B1, in assay [1], the “EC50” value stood at 1.9 nM and the Top killing % is 66.9%.

B2: Bis-96C9E7 (bispecific antibody)
chain 1: EVQLQQSGPELVKPGASVKMSCKASGYTFTYYILHWVKQKPGQGLEWIGYFNPYNDGNKFNERFRGKATLTSDKSSSTAYMELNSLTSEDSAVYFCARGGVRRYFDVWGAGTTVTVSS
chain 2: GGGGSGGGGSGGGGSEVQLVESGGGLVQPGRSLRLSCAASGFTFDNYAMHWVRQAPGKGLEWVSGISWNSGSIGYADSVKGRFTISRDNAKNSLYLQMNSLRAEDTALYYCAKDSRGYGDYSRGGAYWGQGTLVTVSSEIVMTQSPATLSVSPGERATLSCRASQSVSSNLAWYQQKPGQAPRLLIYGASTRATGIPARFSGSGSGTEFTLTISSLQSEDFAVYYCQQYNNWPWTFGQGTKVEIK
chain 3: DIQMTQSPSSLSASLGERVSLTCRASQDIGSNLNWLQQEPDGTIKRLISATFSLDSGVPKRFSGSRSGSDYSLTISSLESEDFVNYYCLQYASFPYTFGGGTKLEIK
As to B2, in assay [1], the concentration giving a half-maximal response (EC50) was 2.34 nM and the Top killing % was determined as 66.2%.

B3: Bis-26E2H6 (bispecific antibody)
chain 1: EVQLVESGGDLVKPGGSLKLSCAASGFTFSSYGMSWVRQTPDKRLEWVATISSGGSYTYYPDSVKGRFTISRDNAKNTLYLQMSSLKSEDTAMYYCARHATDYWGQGTTLTVSS
chain 2: GGGGSGGGGSGGGGSEVQLVESGGGLVQPGRSLRLSCAASGFTFDNYAMHWVRQAPGKGLEWVSGISWNSGSIGYADSVKGRFTISRDNAKNSLYLQMNSLRAEDTALYYCAKDSRGYGDYSRGGAYWGQGTLVTVSSEIVMTQSPATLSVSPGERATLSCRASQSVSSNLAWYQQKPGQAPRLLIYGASTRATGIPARFSGSGSGTEFTLTISSLQSEDFAVYYCQQYNNWPWTFGQGTKVEIK
chain 3: QIVLTQSPAIMSASPGEKVTMTCSASSSVSYMHWYQQKSGTSPKRWIYDTSKLASGVPARFSGSGSGTSYSLTISSMEAEDAATYYCQQWSSNPLTFGAGTKLELK
On to B3, for which, in assay [1], the “EC50” value worked out at 30.5 nM and the Top killing % worked out at 79.1%.

B4: Bis-108C4C12 (bispecific antibody)
chain 1: EVQLQQSGPELVKPGASVKMSCKASGYTFTSYVIHWVKQKTGQGLEWIGYFNPYNDGTKYNEEFKGKATLTSDKSSNTAYMELNSLTSDDSAVYFCARGGVRRYFDVWGAGTTVTVSS
chain 2: GGGGSGGGGSGGGGSEVQLVESGGGLVQPGRSLRLSCAASGFTFDNYAMHWVRQAPGKGLEWVSGISWNSGSIGYADSVKGRFTISRDNAKNSLYLQMNSLRAEDTALYYCAKDSRGYGDYSRGGAYWGQGTLVTVSSEIVMTQSPATLSVSPGERATLSCRASQSVSSNLAWYQQKPGQAPRLLIYGASTRATGIPARFSGSGSGTEFTLTISSLQSEDFAVYYCQQYNNWPWTFGQGTKVEIK
chain 3: DIQMTQSPSSLSASLGERVSLTCRASQDIGSNLNWLQQEPDGTIKRLIYATFGLDSGVPKRFSGSRSGSDYSLTISSLESEDFVDYYCQQYASFPYTFGGGTKLEIK
B4: in assay [1], the concentration for a half-maximal effect (EC50) was determined as 1.44 nM and the Top killing % came to 67.9%.

B5: Bis-110B4H5 (bispecific antibody)
chain 1: EVQLQQSGPELVKPGASVKMSCKASGYTFTFYIMHWVKQKPGQGPEWIGYINPYNDGTKYNAKFKGKATLSSDRSSSTAYMELSSLTSEDSAVYYCARGGVRRYFDVWGAGTPVTVSS
chain 2: GGGGSGGGGSGGGGSEVQLVESGGGLVQPGRSLRLSCAASGFTFDNYAMHWVRQAPGKGLEWVSGISWNSGSIGYADSVKGRFTISRDNAKNSLYLQMNSLRAEDTALYYCAKDSRGYGDYSRGGAYWGQGTLVTVSSEIVMTQSPATLSVSPGERATLSCRASQSVSSNLAWYQQKPGQAPRLLIYGASTRATGIPARFSGSGSGTEFTLTISSLQSEDFAVYYCQQYNNWPWTFGQGTKVEIK
chain 3: DIQMTQSPSSLSASLGERVSLTCRSSQDIGSNLNWLQQEPDGTIKRLIYATFSLDSGVPKRFSGSRSGSHYSLTISSLESEDFVVYYCLQYGSFPYTFGGGTKLEIK
Consider B5, for which, in assay [1], the “EC50” value amounted to 3.62 nM and the Top killing % was 61.5%.

B6: Bis-15D6G2 (bispecific antibody)
chain 1: EVQLVESGGDLVKPGGYLRLSCAASGFTFSSHGMSWVRQTPDKRLEWVATISSGGRNTYYPDSVKGRFTISRDNAKNILYLQMSSLKSEDTAMFYCTRHSGDAMDYWGQGTSVTVSS
chain 2: GGGGSGGGGSGGGGSEVQLVESGGGLVQPGRSLRLSCAASGFTFDNYAMHWVRQAPGKGLEWVSGISWNSGSIGYADSVKGRFTISRDNAKNSLYLQMNSLRAEDTALYYCAKDSRGYGDYSRGGAYWGQGTLVTVSSEIVMTQSPATLSVSPGERATLSCRASQSVSSNLAWYQQKPGQAPRLLIYGASTRATGIPARFSGSGSGTEFTLTISSLQSEDFAVYYCQQYNNWPWTFGQGTKVEIK
chain 3: DILLTQSPAILSVSPGERVSFSCRASQSIGTNIHWYQQRTNGSPRLLIKYASESISGIPSRFSGSGSGTDFTLSINSVESEDIADYYCQQSKSWPTFGGGTKLEIK
On to B6, for which, in assay [1], the “EC50” value worked out at 6.69 nM and the Top killing % is 45.9%.

B7: Bis-98A3A8 (bispecific antibody)
chain 1: EVQLQQSGPELVKPGASVKMSCKASGYTFTYYVTHWVRQKPGQGLEWIGYINPYNDGTMFNEKFKGKATLTSDKSSSTAYMEFSSLTSEDSAVFYCARGGVRRYFDVWGAGTTVTVSS
chain 2: GGGGSGGGGSGGGGSEVQLVESGGGLVQPGRSLRLSCAASGFTFDNYAMHWVRQAPGKGLEWVSGISWNSGSIGYADSVKGRFTISRDNAKNSLYLQMNSLRAEDTALYYCAKDSRGYGDYSRGGAYWGQGTLVTVSSEIVMTQSPATLSVSPGERATLSCRASQSVSSNLAWYQQKPGQAPRLLIYGASTRATGIPARFSGSGSGTEFTLTISSLQSEDFAVYYCQQYNNWPWTFGQGTKVEIK
chain 3: DIQMTQSPSSLSASLGERVSLTCRASQDIGSNLNWLQQKPDGTIKRLIYATSSLDSGVPKRFSGSRSGSDYSLTINSLESEDFVDYYCLQYASFPYTFGGGTKLEIK
In the case of B7, in assay [1], a half-maximal response (EC50) required 2.95 nM and the Top killing % is 64.4%.

B8: 98A3A8 (antibody, V domains shown)
VH: EVQLQQSGPELVKPGASVKMSCKASGYTFTYYVTHWVRQKPGQGLEWIGYINPYNDGTMFNEKFKGKATLTSDKSSSTAYMEFSSLTSEDSAVFYCARGGVRRYFDVWGAGTTVTVSS
VL: DIQMTQSPSSLSASLGERVSLTCRASQDIGSNLNWLQQKPDGTIKRLIYATSSLDSGVPKRFSGSRSGSDYSLTINSLESEDFVDYYCLQYASFPYTFGGGTKLEIK
notes: Mouse monoclonal antibody from hybridoma subclone
On to B8, for which the “% Positive” value in assay [2] is 98.7%; in assay [3], 89.4%; in assay [4], 93.2%; in assay [5], 95.3%. The MFI in assay [2] stood at 962; in assay [3], 566; in assay [4], 2070; in assay [5], 2070.

B9: 101B3G3 (antibody, V domains shown)
VH: EVQLQQSGPELVKPGASMKISCKASGYSFTGYTMNWVKQSHGKNLEWIGLINPYNGGTRYNQKFKDKATLTVDKSSSTAYMELLSLTSEDSAVYYCARWLLRYAMDYWGQGTSVTVSS
VL: DIVMTQSQKFMSTSVGDRVSITCKASQNVGNAVAWYQQKPGHSPKLLISSASNRKNGVPDRFTGSGSGTDFTLTVSNMQSEDLADYFCQQYSDSSWTFGGGTKLEIK
notes: as for B8
B9: the “% Positive” value was found to be 99.6% in assay [2], 85.2% in assay [3], 97.9% in assay [4] and 57.4% in assay [5]. Further, the MFI in assay [2] was 1370; in assay [3], 1480; in assay [4], 27100; in assay [5], 585.

Source of the values: patent publication US20250368734A1 (ANTENGENE BIOLOGICS, published 2025).
